Data: publication PMC3772987

What was measured:
BosR tag-free = BosR tag-free (Borrelia burgdorferi B31, UniProt O51592 1-176, M1R); assay: fluorescence anisotropy
His6-BosR = His6-BosR (Borrelia burgdorferi B31, UniProt O51592 2-176); assay: fluorescence anisotropy

Row | Binder | Kd (BosR tag-free) [nM] | Kd (His6-BosR) [nM]
1 | FPospAB (dsDNA) DNA 1: TAATCTTATAATATAATTATACTT DNA 2: AAGTATAATTATATTATAAGATTA | 307 | 222
2 | FPospD (dsDNA) DNA 1: ATAATTGATATTAAAATATAATTGAT DNA 2: ATCAATTATATTTTAATATCAATTAT | 332 | 262
